These results are taken from doi:10.1101/211250 (bioRxiv, 2017).

By Kd is commonly meant the equilibrium constant for the complex coming apart. Low readings indicate higher affinity, high ones lower affinity.

To fix the notation:
B1: p-3 phosphorylated RPS6KA2 peptide (MKRLTpSTRL-coo-) (peptide)
peptide: MKRLT[pS]TRL-OH
modifications: N-terminus assumed
SMILES: CSCC[C@H](N)C(=O)N[C@@H](CCCCN)C(=O)N[C@@H](CCCNC(=N)N)C(=O)N[C@@H](CC(C)C)C(=O)N[C@H](C(=O)N[C@@H](COP(=O)(O)O)C(=O)N[C@H](C(=O)N[C@@H](CCCNC(=N)N)C(=O)N[C@@H](CC(C)C)C(=O)O)[C@@H](C)O)[C@@H](C)O
B2: Shank1 PDZ (domain or fragment)
chain: TVLLQKKDSEGFGFVLRGAKAQTPIEEFTPTPAFPALQYLESVDEGGVAWRAGLRMGDFLIEVNGQNVVKVGHRQVVNMIRQGGNTLMVKVVMVT
B3: p-1 phosphorylated MCC peptide (RPHTNETpSL-coo-) (peptide)
peptide: RPHTNET[pS]L-OH
modifications: N-terminus assumed
SMILES: CC(C)C[C@H](NC(=O)[C@H](COP(=O)(O)O)NC(=O)[C@@H](NC(=O)[C@H](CCC(=O)O)NC(=O)[C@H](CC(N)=O)NC(=O)[C@@H](NC(=O)[C@H](Cc1c[nH]cn1)NC(=O)[C@@H]1CCCN1C(=O)[C@@H](N)CCCNC(=N)N)[C@@H](C)O)[C@@H](C)O)C(=O)O
B4: FITC-labeled p-1 phosphorylated MCC peptide (peptide)
peptide: HTNET[pS]L
modifications: also: FITC label (position not given here)
B5: FITC-labeled p-3 phosphorylated RPS6KA2 peptide (peptide)
peptide: RLT[pS]TRL
modifications: also: FITC label (position not given here)

Non-standard residues stand in square brackets, D forms with d. No end group written: not given here. pS = N[C@@H](COP(=O)(O)O)C(=O)O

Assay [1] addresses FITC-labeled p-1 phosphorylated MCC peptide (human). Put plainly: MST.
Assay [2] concerns the target FITC-labeled p-3 phosphorylated RPS6KA2 peptide (human). Put plainly: MST.
In assay [3] the target is FITC-labeled p-6 phosphorylated TANC1 peptide (human). Nature of the assay: MST.
In assay [4] the target is FITC-labeled phosphomimetic RPS6KA2 peptide (p-3 Ser to Glu) (human) (UniProt Q15349). Nature of the assay: MST.
The target of assay [5] is FITC-labeled phosphomimetic TANC1 peptide (p-6 Ser to Glu) (human) (UniProt Q9C0D5). Put plainly: MST.
Assay [6] addresses T1, Scribble PDZ1 (human, UniProt Q14160 719-829). Nature of the assay: MST.
In assay [7] the target is T1, Scribble PDZ1. Nature of the assay: ITC.
Assay [8] deals with Scribble PDZ1 K746A (human, UniProt Q14160 719-829, K746A). Nature of the assay: ITC. (In general: In ITC the heat of successive injections is recorded.)
Assay [9] concerns the target Scribble PDZ1 R762A (human, UniProt Q14160 719-829, R762A). Nature of the assay: ITC.
Assay [10] deals with Scribble PDZ1 R801A (human, UniProt Q14160 719-829, R801A). Nature of the assay: ITC.
Assay [11] has as its target Scribble PDZ1 R762A/A743R (human, UniProt Q14160 719-829, R762A | A743R). Nature of the assay: ITC.
The target in assay [12] is B5. Nature of the assay: MST.
For assay [13], the target named is B4. Nature of the assay: MST.

Sequence of Scribble PDZ1 R762A (Q14160 719-829 R762A): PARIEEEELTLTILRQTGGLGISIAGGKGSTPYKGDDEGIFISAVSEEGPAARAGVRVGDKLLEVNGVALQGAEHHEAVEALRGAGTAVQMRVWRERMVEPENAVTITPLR
T1 sequence (Q14160 719-829): as the sequence (Q14160 719-829 R762A) above, with A44R counted along it
Sequence of Scribble PDZ1 R762A/A743R (Q14160 719-829 A743R/R762A): as the sequence (Q14160 719-829 R762A) above, with A25R counted along it
Sequence of Scribble PDZ1 R801A (Q14160 719-829 R801A): as the sequence (Q14160 719-829 R762A) above, with A44R, R83A counted along it
Sequence of Scribble PDZ1 K746A (Q14160 719-829 K746A): as the sequence (Q14160 719-829 R762A) above, with K28A, A44R counted along it
Sequence of FITC-labeled phosphomimetic TANC1 peptide (p-6 Ser to Glu) (human) (Q9C0D5 whole entry, looked up, tested part not stated): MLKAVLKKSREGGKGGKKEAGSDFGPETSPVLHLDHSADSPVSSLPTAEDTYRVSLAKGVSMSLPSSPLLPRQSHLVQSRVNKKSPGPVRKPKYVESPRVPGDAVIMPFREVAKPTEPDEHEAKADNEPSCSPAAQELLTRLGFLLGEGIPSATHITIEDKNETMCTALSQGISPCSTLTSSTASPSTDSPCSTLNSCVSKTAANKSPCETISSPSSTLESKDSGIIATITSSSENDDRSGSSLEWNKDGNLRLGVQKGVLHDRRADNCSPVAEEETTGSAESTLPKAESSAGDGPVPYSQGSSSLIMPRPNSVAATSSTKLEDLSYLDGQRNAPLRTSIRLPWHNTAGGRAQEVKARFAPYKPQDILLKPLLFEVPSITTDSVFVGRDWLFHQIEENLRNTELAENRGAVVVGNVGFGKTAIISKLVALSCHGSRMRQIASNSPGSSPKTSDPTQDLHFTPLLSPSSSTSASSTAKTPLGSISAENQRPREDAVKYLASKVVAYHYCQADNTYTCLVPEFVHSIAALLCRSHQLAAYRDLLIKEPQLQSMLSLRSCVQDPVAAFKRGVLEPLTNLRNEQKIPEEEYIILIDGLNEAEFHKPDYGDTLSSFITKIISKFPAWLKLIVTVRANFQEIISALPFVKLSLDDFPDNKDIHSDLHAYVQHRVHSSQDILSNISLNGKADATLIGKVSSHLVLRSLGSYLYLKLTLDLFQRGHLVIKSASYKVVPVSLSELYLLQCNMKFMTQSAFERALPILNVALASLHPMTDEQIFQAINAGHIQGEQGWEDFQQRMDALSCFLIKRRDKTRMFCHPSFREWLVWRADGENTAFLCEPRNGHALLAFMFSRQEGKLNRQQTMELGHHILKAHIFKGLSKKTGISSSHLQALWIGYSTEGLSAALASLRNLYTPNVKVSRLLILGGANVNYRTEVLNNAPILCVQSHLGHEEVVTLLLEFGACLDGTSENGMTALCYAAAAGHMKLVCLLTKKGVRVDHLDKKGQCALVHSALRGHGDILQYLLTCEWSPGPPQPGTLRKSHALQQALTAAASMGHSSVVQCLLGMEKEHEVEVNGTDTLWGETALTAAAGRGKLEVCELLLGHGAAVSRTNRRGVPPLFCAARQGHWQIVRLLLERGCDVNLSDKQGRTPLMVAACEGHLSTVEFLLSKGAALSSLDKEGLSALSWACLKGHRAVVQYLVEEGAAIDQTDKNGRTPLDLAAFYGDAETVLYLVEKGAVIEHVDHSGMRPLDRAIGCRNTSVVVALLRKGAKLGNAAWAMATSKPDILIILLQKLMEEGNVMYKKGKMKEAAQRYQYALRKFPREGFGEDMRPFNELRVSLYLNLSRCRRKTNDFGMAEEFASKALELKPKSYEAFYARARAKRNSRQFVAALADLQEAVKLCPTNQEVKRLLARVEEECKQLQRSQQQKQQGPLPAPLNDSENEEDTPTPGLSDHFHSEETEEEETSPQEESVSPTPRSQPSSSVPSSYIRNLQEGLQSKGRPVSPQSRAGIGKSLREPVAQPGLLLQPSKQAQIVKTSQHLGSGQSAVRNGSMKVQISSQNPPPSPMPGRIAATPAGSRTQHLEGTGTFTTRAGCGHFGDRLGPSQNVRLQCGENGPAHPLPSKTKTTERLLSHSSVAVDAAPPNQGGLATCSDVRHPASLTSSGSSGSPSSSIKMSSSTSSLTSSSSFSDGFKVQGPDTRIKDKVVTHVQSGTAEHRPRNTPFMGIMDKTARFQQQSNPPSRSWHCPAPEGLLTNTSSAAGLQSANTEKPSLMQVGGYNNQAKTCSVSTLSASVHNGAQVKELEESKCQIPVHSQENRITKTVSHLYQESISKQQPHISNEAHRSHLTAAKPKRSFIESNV
Sequence of FITC-labeled phosphomimetic RPS6KA2 peptide (p-3 Ser to Glu) (human) (Q15349 whole entry, looked up, tested part not stated): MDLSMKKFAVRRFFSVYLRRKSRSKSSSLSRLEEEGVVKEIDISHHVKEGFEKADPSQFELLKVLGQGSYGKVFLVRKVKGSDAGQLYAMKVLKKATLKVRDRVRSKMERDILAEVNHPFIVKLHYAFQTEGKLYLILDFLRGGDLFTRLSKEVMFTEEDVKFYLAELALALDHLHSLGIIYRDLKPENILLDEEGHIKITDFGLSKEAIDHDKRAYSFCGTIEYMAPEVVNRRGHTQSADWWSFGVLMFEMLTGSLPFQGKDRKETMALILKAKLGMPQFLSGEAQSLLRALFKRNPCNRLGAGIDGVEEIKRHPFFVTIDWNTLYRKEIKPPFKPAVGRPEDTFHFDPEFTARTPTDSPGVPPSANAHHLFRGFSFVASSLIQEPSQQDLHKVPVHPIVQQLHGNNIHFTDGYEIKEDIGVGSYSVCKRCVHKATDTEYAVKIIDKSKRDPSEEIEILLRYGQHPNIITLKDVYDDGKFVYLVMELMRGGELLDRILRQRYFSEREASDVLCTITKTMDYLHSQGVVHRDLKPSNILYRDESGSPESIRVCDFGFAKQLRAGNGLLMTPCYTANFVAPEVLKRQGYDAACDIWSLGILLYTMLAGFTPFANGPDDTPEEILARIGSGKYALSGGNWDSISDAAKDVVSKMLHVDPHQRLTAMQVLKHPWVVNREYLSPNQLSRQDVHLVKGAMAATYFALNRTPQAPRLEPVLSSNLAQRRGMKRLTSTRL

DLG1 PDZ2 (domain or fragment): the fold lower affinity than for the unphosphorylated peptide is 9 fold in assay [1], 2.9 fold in assay [3] and 2.4 fold in assay [5]. In addition, the fold higher affinity than for the unphosphorylated peptide was 1.3 fold in [2] and 7 fold in assay [4].
For the molecule VRKLP[pS]TTL (also: FITC label, position not given here) [FITC-labelled phosphorylated RPS6KA1 peptide (S732, p-3)], in assay [6], the Kd worked out at 0.39 µM.
Regarding KRSFIESNV-OH (also: FITC label, position not given here) [FITC-labeled unphosphorylated TANC1 peptide (KRSFIESNV-coo-)], the binding result in assay [6] is given as “binds”.
On to B1, for which the “fold lower KD than for the unphosphorylated peptide” value in assay [7] came to 5 fold. Also, the binding result in [8], in assay [9], in [10] and in assay [11] was “binds” in each case.
In the case of MKRLTSTRL-OH [unphosphorylated RPS6KA2 peptide (MKRLTSTRL-coo-)], the binding result in [7], in [8], in assay [9], in assay [10] and in [11] was “binds” each time.
In the case of KR[pS]FIESNV (also: FITC label, position not given here) [FITC-labeled p-6 phosphorylated TANC1 peptide], the binding result in assay [6] was “binds”.
Regarding B2, the “fold lower affinity than for the unphosphorylated peptide” value in assay [12] was 3.6 fold; in assay [13], 3 fold.
Turning to B3, the “fold lower KD than for the unphosphorylated peptide” value in [7] stood at 2 fold. Further, the binding result in assay [9] and in assay [11] was “binds” throughout.
For the molecule HTNETSL-OH (also: FITC label, position not given here) [FITC-labeled unphosphorylated MCC peptide (HTNETSL-coo-)], in assay [6], the binding result is recorded as “binds”.
Still for that read-out and setting: the result for B4 reads “binds”.
Take VRKLPSTTL-OH (also: FITC label, position not given here) [FITC-labelled unphosphorylated RPS6KA1 peptide (VRKLPSTTL-coo-)]: in assay [6], the affinity, expressed as Kd, was 1 µM. This counts as single-digit micromolar.
As for RLTETRL (also: FITC label, position not given here) [FITC-labeled phosphomimetic RPS6KA2 peptide (p-3 Ser to Glu)], the binding result in assay [6] is reported as “binds”.
For the molecule B5, the binding result in assay [6] is “binds”.
RLTSTRL-OH (also: FITC label, position not given here) [FITC-labeled unphosphorylated RPS6KA2 peptide (RLTSTRL-coo-)]: the binding result in assay [6] was “binds”.
In the case of RPHTNETSL-OH [unphosphorylated MCC peptide (RPHTNETSL-coo-)], the binding result in [7], in assay [9] and in assay [11] was “binds” throughout.
